Patent CN111995674A (INST MILITARY MEDICINE ACADEMY MILITARY SCIENCES PLA, dated 2020)

Molecular target: RBD重组蛋白 (SARS-CoV-2 S蛋白RBD区, 毕赤酵母GJK0601表达) (SARS-CoV-2)

B1: 人鼠嵌合全抗体mhC3 (antibody, V domains shown)
VH: EVQLVESGGDLVKPGGSLKLSCAASGFTFNTYAMNWVRQTPGKGLEWVARIRSKSNNYATYYADSVKDRFTISRDDSQSMLYLQMNNLKTEDTAMYYCVTPYYGNYADWFTYWGQGTSVTVSS
VL: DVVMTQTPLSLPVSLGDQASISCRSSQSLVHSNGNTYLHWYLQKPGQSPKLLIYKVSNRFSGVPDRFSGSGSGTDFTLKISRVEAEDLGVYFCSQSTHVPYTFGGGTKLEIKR
notes: also called mhC3抗体; C3 (图5、图6)
EC50: 0.0129 nM
